Reference: US20240425571A1, “GLYCOPROTEIN A REPETITIONS PREDOMINANT (GARP)-BINDING ANTIBODIES AND USES THEREOF” (OHIO STATE INNOVATION FOUNDATION, priority 2021, published 2024)

System: Ag(−) cell
Assay: FACS analysis with Ag(−) cell (non-specific binding)
Conditions: 5 ug/ml
Experimental: Methods—FACS analysis. Cell preparation: Cell were harvested and washed with PBS+2% FBS for one time. Cell density was adjusted to 1.5E6/mL in PBS/2% FBS. Cell were added to 96 U-bottom well plates at 100 μL/well. Antibody samples preparation: Antibody in supernatant was adjusted to 10 μg/mL using PBS+2% FBS, with serial 5 times dilution performed to obtain 3 concentrations of antibody solution. The blank was PBS+2% FBS. Antibody solutions were placed into 96 U-bottom well plates at 100 μL/well in the same arranging pattern as the cell preparation. Incubation: The antibody samples (100 μl) were mixed with the cells (100 μl), and incubated at RT for 1 h, then centrifuged the plate for 3 min at 1000 rpm (swing bucket). The supernatant was pipetted and the cells were washed with PBS+2% FBS for one time. Incubation with the secondary antibody: Cy3-Conjugated AffiniPure Goat Anti-Human IgG was diluted 250× by PBS+2% FBS, and added to the 96 U-bottom well plate with 100 μl/well, then incubated at RT for 30 min. After that, the plate was centrifuged at 1000 rpm for 3 min and the supernatant was pipetted out. The cell was washed with PBS+2% FBS twice. Cells were re-suspended in 200 μl PBS+2% FBS and analyzed on FACS. The MFI of total live cells were used as binding signal.
Methods—heat treatment. Culture supernatant was serial diluted to the indicated concentration of IgG with cell media and heated at 70° C. for 5 mins on a PCR machine, then quickly cooled down to room temperature.

B1: H2L3: humanized PIIO-1 antibody, VH SEQ ID NO: 21 and VL SEQ ID NO: 22 (antibody, V domains shown)
VH: QVQLQESGPGLVKPSQTLSLTCTVSGYSITSDYAWNWIRQFPGNKLEWMGYISYSGSTSYTPSLKSRITISRDTSKNHFFLKLSSVTAADTAVYYCAKSGGDYYGSSSYWYFDVWGQGTMVTVSS
VL: DIVLTQSPSSLAVSAGERVTMSCKSSQSLLNSRSQKNYLAWYQQKPGQPPKLLIYGASTRGSGVPDRFSGSGSGTDFTLTISSVQAEDVAVYYCQNDHSYPFTFGSGTKLEIKR
In the case of B1, the “FACS with Ag(−) cell (MFI)” value (Heating) is reported as 3.35 and the “FACS with Ag(−) cell (MFI)” value (Non-Heating) is reported as 3.18.

B2: H3L3: humanized PIIO-1 antibody, VH SEQ ID NO: 19 and VL SEQ ID NO: 22 (antibody, V domains shown)
VH: DVQLQESGPGLVKPSQTLSLTCTVSGYSITSDYAWNWIRQFPGNKLEWMGYISYSGSTSYTPSLKSRITISRDTSKNHFFLKLSSVTAADTATYYCAKSGGDYYGSSSYWYFDVWGQGTTVTVSS
VL: DIVLTQSPSSLAVSAGERVTMSCKSSQSLLNSRSQKNYLAWYQQKPGQPPKLLIYGASTRGSGVPDRFSGSGSGTDFTLTISSVQAEDVAVYYCQNDHSYPFTFGSGTKLEIKR
With B2 the “FACS with Ag(−) cell (MFI)” value (Heating) was 3.29 and the “FACS with Ag(−) cell (MFI)” value (Non-Heating) was 3.16.

B3: H4L3: humanized PIIO-1 antibody, VH SEQ ID NO: 18 and VL SEQ ID NO: 22 (antibody, V domains shown)
VH: DVQLQESGPGLVKPSQTLSLTCTVSGYSITSDYAWNWIRQFPGNKLEWMGYISYSGSTSYTPSLKSRITISRDTSKNHFFLQLSSVTAEDTATYYCAKSGGDYYGSSSYWYFDVWGQGTTVTVSS
VL: DIVLTQSPSSLAVSAGERVTMSCKSSQSLLNSRSQKNYLAWYQQKPGQPPKLLIYGASTRGSGVPDRFSGSGSGTDFTLTISSVQAEDVAVYYCQNDHSYPFTFGSGTKLEIKR
In the case of B3, the “FACS with Ag(−) cell (MFI)” value (Heating) is reported as 3.36 and the “FACS with Ag(−) cell (MFI)” value (Non-Heating) is reported as 3.27.

B4: H1L3: humanized PIIO-1 antibody, VH SEQ ID NO: 20 and VL SEQ ID NO: 22 (antibody, V domains shown)
VH: QVQLQESGPGLVKPSQTLSLTCTVSGYSITSDYAWNWIRQFPGNKLEWMGYISYSGSTSYTPSLKSRVTISRDTSKNHFSLKLSSVTAADTAVYYCAKSGGDYYGSSSYWYFDVWGQGTMVTVSS
VL: DIVLTQSPSSLAVSAGERVTMSCKSSQSLLNSRSQKNYLAWYQQKPGQPPKLLIYGASTRGSGVPDRFSGSGSGTDFTLTISSVQAEDVAVYYCQNDHSYPFTFGSGTKLEIKR
With B4 the “FACS with Ag(−) cell (MFI)” value (Heating) was 3.33 and the “FACS with Ag(−) cell (MFI)” value (Non-Heating) was 3.22.

B5: H4L1: humanized PIIO-1 antibody, VH SEQ ID NO: 18 and VL SEQ ID NO: 23 (antibody, V domains shown)
VH: DVQLQESGPGLVKPSQTLSLTCTVSGYSITSDYAWNWIRQFPGNKLEWMGYISYSGSTSYTPSLKSRITISRDTSKNHFFLQLSSVTAEDTATYYCAKSGGDYYGSSSYWYFDVWGQGTTVTVSS
VL: DIVLTQSPSSLAVSLGERATMNCKSSQSLLNSRSQKNYLAWYQQKPGQPPKLLIYGASTRGSGVPDRFSGSGSGTDFTLTISSLQAEDVAVYYCQNDHSYPFTFGQGTKLEIKR
B5 was tested, and the “FACS with Ag(−) cell (MFI)” value (Heating) was 3.25 and the “FACS with Ag(−) cell (MFI)” value (Non-Heating) was 3.11.

B6: H4L2: humanized PIIO-1 antibody, VH SEQ ID NO: 18 and VL SEQ ID NO: 24 (antibody, V domains shown)
VH: DVQLQESGPGLVKPSQTLSLTCTVSGYSITSDYAWNWIRQFPGNKLEWMGYISYSGSTSYTPSLKSRITISRDTSKNHFFLQLSSVTAEDTATYYCAKSGGDYYGSSSYWYFDVWGQGTTVTVSS
VL: DIVLTQSPSSLAVSLGERVTMNCKSSQSLLNSRSQKNYLAWYQQKPGQPPKLLIYGASTRGSGVPDRFSGSGSGTDFTLTISSVQAEDVAVYYCQNDHSYPFTFGQGTKLEIKR
With B6 the “FACS with Ag(−) cell (MFI)” value (Heating) was 3.29 and the “FACS with Ag(−) cell (MFI)” value (Non-Heating) was 3.26.

B7: H3L1: humanized PIIO-1 antibody, VH SEQ ID NO: 19 and VL SEQ ID NO: 23 (antibody, V domains shown)
VH: DVQLQESGPGLVKPSQTLSLTCTVSGYSITSDYAWNWIRQFPGNKLEWMGYISYSGSTSYTPSLKSRITISRDTSKNHFFLKLSSVTAADTATYYCAKSGGDYYGSSSYWYFDVWGQGTTVTVSS
VL: DIVLTQSPSSLAVSLGERATMNCKSSQSLLNSRSQKNYLAWYQQKPGQPPKLLIYGASTRGSGVPDRFSGSGSGTDFTLTISSLQAEDVAVYYCQNDHSYPFTFGQGTKLEIKR
With B7 the “FACS with Ag(−) cell (MFI)” value (Heating) was 3.4 and the “FACS with Ag(−) cell (MFI)” value (Non-Heating) was 3.28.

B8: H3L2: humanized PIIO-1 antibody, VH SEQ ID NO: 19 and VL SEQ ID NO: 24 (antibody, V domains shown)
VH: DVQLQESGPGLVKPSQTLSLTCTVSGYSITSDYAWNWIRQFPGNKLEWMGYISYSGSTSYTPSLKSRITISRDTSKNHFFLKLSSVTAADTATYYCAKSGGDYYGSSSYWYFDVWGQGTTVTVSS
VL: DIVLTQSPSSLAVSLGERVTMNCKSSQSLLNSRSQKNYLAWYQQKPGQPPKLLIYGASTRGSGVPDRFSGSGSGTDFTLTISSVQAEDVAVYYCQNDHSYPFTFGQGTKLEIKR
B8 was tested, and the “FACS with Ag(−) cell (MFI)” value (Heating) was 3.26 and the “FACS with Ag(−) cell (MFI)” value (Non-Heating) was 3.37.

B9: H2L2: humanized PIIO-1 antibody, VH SEQ ID NO: 21 and VL SEQ ID NO: 24 (antibody, V domains shown)
VH: QVQLQESGPGLVKPSQTLSLTCTVSGYSITSDYAWNWIRQFPGNKLEWMGYISYSGSTSYTPSLKSRITISRDTSKNHFFLKLSSVTAADTAVYYCAKSGGDYYGSSSYWYFDVWGQGTMVTVSS
VL: DIVLTQSPSSLAVSLGERVTMNCKSSQSLLNSRSQKNYLAWYQQKPGQPPKLLIYGASTRGSGVPDRFSGSGSGTDFTLTISSVQAEDVAVYYCQNDHSYPFTFGQGTKLEIKR
With B9 the “FACS with Ag(−) cell (MFI)” value (Non-Heating) was 3.24.
